Here are results for one molecule from paper PMC10907282 (Proceedings of the National Academy of Sciences of the …, 2024).

In this assay the target is purified SOS3 (Arabidopsis thaliana, UniProt O81223 1-222). In words: other fluorescence titration.
Chain of purified SOS3 (O81223 whole entry): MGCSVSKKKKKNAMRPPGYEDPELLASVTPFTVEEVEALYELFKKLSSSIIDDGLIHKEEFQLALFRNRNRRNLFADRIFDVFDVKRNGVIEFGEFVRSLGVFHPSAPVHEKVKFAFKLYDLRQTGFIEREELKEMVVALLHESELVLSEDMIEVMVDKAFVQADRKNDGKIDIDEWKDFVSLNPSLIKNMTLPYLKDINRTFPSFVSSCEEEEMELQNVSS

B1: synthetic peptide spanning the S3BD of SOS1, residues K460 to D484 (peptide, UniProt Q9LKW9 460-484, looked up)
peptide: KKRILEYTKYEMLNKALRAFQDLGD
With B1, the binding result is listed as “binds”.
